In patent US20220213198A1, “METHOD OF TREATMENT” (The Council of the Queensland Institute of Medical Research, priority 2019, published 2022):
“Also recorded” adds a separate entry of the source.

What was measured:
MR1 / MAIT cells = details: cited from earlier work; for effect on MAIT cell activation: background statement
B16F10 melanoma cells = assay: B16F10 experimental lung metastasis model; format: in vivo, mouse
Procedure: FIG. 2. […] (A) The schematic and timeline of expanding MAIT cells from splenocytes derived from C57BL/6 WT mice with IL-2 and 5-OP-RU, for sorting and adoptive transfer into tumor-bearing mice. (B, C) Groups of WT or MR1^−/− or Rag2cγ^−/− mice (n=5-6/group) were injected i.v. with (B) 1×10^5 or (C) 1×10^4 B16F10 melanoma cells. In some groups, sorted MAIT or T conventional cells (cT) (non-MAIT αβ^+ T cells) (2×10^5 cells/mouse) from C57BL/6 (B) WT or (C) TCRδ^−/− mice were i.v. injected into the indicated groups of mice one day before tumor inoculation. (C) One group of mice received i.v injection of media alone as a control. (B, C) On day 14 relative to tumor cell inoculation, lungs were harvested and the metastatic burden was quantified by counting colonies on the lung surface. Data presented as mean±SEM. (D) B16F10 or LWT1 melanoma cells were stimulated in vitro with DMSO or 5-OP-RU (100 nM) for 4 hours before cell surface MR1 expression was determined by flow cytometry. Groups of C57BL/6 WT or MR1^−/− mice (n=5-6/group) were i.v. injected with (E) 1×10^5 B16F10 or (F) 5×10^5 LWT1 cells melanoma cells pulsed with DMSO or 5-OP-RU (100 nM, 4 hours). Fourteen days later relative to tumor cell inoculation, lungs were harvested and the metastatic burden was quantified by counting colonies on the lung surface. Data presented as mean±SEM. Experiments performed once for (B, C, F) and three times for (D, E) with one representative experiment shown. Significant differences between groups as indicated by crossbars were determined using a one-way ANOVA followed by Tukey's post-hoc test (B, E, F), *p<0.05, **p<0.01, ****p<0.0001
FIG. 5. […] (A) Generation of three independent B16F10 cell lines knocked out for MR1 using three different MR1 sgRNA. […] Empty vector transfected B16F10 cells were used as a positive control. (B, C) Groups of C57BL/6 WT, MR1^−/− or Rag2cγ^−/− mice (n=5-6/group) were i.v. injected with either (B) 1×10^5 B16F10 vector control cells or the indicated clone of B16F10 cells lacking MR1 (sgR1, sgR2, sgR3) or (C) 1×10^4 B16F10-MR1^KO cells (sgR3 clone). On day 14 relative to tumor cell inoculation, lungs were harvested and the metastatic burden was quantified by counting colonies on the lung surface. Data presented as mean±SEM. (D) Re-expression of GFP or GFP-MR1 expressing vector into B16F10-MR1^KO (sgR3 clone). MR1 surface expressions of these cells stimulated with or without 5-OP-RU were assessed by flow cytometry. (E) Groups of C57BL/6 WT mice (n=6/group) were i.v. injected with 1×10^5 B16F10-MR1^KO (sgR3 clone) transfected with empty GFP-expressing vector or MR1-GFP-expressing vector. (F) Groups of C57BL/6 WT or MR1^−/− mice were i.v. injected with parental B16F10 cells treated with vehicle (dd H2O) or AC-6-FP (10 μM, 18 hours). On day 14 relative to tumor cell injection, lungs were harvested and the metastatic burden was quantified by counting colonies on the lung surface. Data presented as mean±SEM. Experiments performed twice for (A-E) and once for (F). Significant differences between groups as indicated by crossbars were determined by a one-way ANOVA followed by Tukey's post-hoc test (A, F), or a Mann-Whitney test (C, E), *p<0.05, **p<0.01, ****p<0.0001.
FIG. 6. […] Groups of C57BL/6 WT or MR1^−/− mice (n=5-6/group) were i.v. injected with (A, B) 1×10^5 B16F10, (C) 1×10^5 parental B16F10 or 2×10^5 B16F10-MR1^KO (sgR3 clone) melanoma cells and (D) 5×10^5 LWT1 melanoma cells or s.c injected with (E) 1×10^6 MCA1956 fibrosarcoma or (F) 1×10^6 SM1WT1 melanoma cells on day 0.

[1] = target: T1, surface MR1 on mouse tumor cell lines (Mus musculus, UniProt Q8HWB0); details: stated as property of the ligand; cited from earlier work
T1 construct: endogenous in cells
T1 sequence (Q8HWB0 19-341): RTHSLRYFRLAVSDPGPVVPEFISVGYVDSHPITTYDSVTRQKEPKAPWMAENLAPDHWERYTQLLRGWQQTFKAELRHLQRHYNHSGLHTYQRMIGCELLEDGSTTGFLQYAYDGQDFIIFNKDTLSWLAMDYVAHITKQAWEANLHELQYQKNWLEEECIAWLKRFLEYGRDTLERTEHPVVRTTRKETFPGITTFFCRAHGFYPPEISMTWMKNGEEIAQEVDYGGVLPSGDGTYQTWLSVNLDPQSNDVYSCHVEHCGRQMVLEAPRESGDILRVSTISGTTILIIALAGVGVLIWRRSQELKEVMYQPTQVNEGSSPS
T1 sequence (P01887 21-119 partner): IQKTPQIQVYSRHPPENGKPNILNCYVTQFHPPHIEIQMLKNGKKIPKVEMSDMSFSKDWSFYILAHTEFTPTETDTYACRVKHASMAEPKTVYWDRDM

[2] = target: T2, mouse MR1 (MHC class I-related protein 1) (mouse, UniProt Q8HWB0 19-341); assay: flow cytometry on mouse tumor cell lines with or without 5-OP-RU
T2 construct: whole, on cells; also called surface MR1
T2 sequence (Q8HWB0 19-341): as the sequence (Q8HWB0 19-341) above
Description: (§1) MR1 mRNA transcripts are present in different tissues and cell lines from mice and humans. […] In contrast, whether mouse tumor cell lines express MR1 has not previously been examined. […] Basally, the level of MR1 was almost undetectable on the surface of all tumor cell lines examined (FIG. 2D). […] The kinetics of MR1 upregulation on B16F10 cells was similar to what was previously reported for human C1R cells (B-cell lymphoblastoid cell line) (McWilliam et al., 2016). […] Next, the impact of up-regulation of MR1 on B16F10 or LWT1 prior to i.v injection to WT or MR1−/− mice on the number of lung metastases was assessed.

[3] = target: T3, human MR1 (MHC class I-related protein 1) (human, UniProt Q95460 23-341); assay: flow cytometry; human cell lines with or without 5-OP-RU (data not shown)
T3 construct: The assays used endogenous MR1 of human cell lines (flow cytometry) and of FFPE tumor sections (IHC); no signal peptide limits are stated
T3 sequence (Q95460 23-341 limits assumed): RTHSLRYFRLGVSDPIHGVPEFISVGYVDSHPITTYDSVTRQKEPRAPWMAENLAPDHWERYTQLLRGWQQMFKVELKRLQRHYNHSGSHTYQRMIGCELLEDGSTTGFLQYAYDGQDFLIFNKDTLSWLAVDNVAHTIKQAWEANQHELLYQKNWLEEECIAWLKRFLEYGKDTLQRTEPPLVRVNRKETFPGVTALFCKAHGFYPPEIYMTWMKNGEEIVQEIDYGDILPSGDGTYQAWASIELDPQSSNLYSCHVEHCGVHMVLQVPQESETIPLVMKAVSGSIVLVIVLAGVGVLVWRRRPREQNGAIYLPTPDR

human MR1 = human MR1 (Homo sapiens, UniProt Q95460); assay: Anti-MR1 reactivity with human MR1; format: binding; details: flow cytometry antibody
Sequence of human MR1 (Q95460 23-341): as the sequence (Q95460 23-341 limits assumed) above
Sequence of human MR1 (P61769 21-119 partner): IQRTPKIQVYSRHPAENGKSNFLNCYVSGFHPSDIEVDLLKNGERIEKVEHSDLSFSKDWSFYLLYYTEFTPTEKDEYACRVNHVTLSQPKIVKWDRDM
Description: as §1

mouse MR1 = mouse MR1 (Mus musculus, UniProt Q8HWB0); assay: Anti-MR1 reactivity with mouse MR1; format: binding; details: flow cytometry antibody
Sequence of mouse MR1 (Q8HWB0 19-341): as the sequence (Q8HWB0 19-341) above
Sequence of mouse MR1 (P01887 21-119 partner): as the sequence (P01887 21-119 partner) above
Description: as §1

Nc1nc2ncc(C=O)nc2c(=O)[nH]1 [6-FP, 6-formylpterin]
effect on MAIT cell activation (MR1 / MAIT cells): inhibit MAIT cell activation

CC(=O)Nc1nc2ncc(C=O)nc2c(=O)[nH]1 [AC-6-FP, acetyl 6-formylpterin]
effect on MAIT cell activation (MR1 / MAIT cells): does not activate MAIT cells; also recorded: inhibit MAIT cell activation
number of lung metastases (B16F10 melanoma cells; WT mice injected with B16F10 pre-treated 10 μM 18 hours, vs vehicle-treated, day 14): decrease in metastases numbers
number of lung metastases (B16F10 melanoma cells; WT mice injected with B16F10 pre-treated 10 μM 18 hours, vs vehicle-treated, day 14, listed as Ac-6-FP): dramatically reduced
MR1 expression [1]: upregulates MR1

B1: anti-MR1 antibody 26.5 (antibody, V domains shown)
VH: QVQLQQSGTELVRPGTSVKVSCKASGYAFSNYLIEWIKQRPGQGLEWIGVINPGSGGISYNEKFKGKATLTADKSSSTAYMQLSSLTSEDSAVYFCARWGYLYYYTMDHWGQGTSVTVSS
VL: DVLMTQTPLSLPVSLGDQASISCRSSQSIVQGSGNTFLDWYLQKPGQSPKVLIYKVSNRFSGVPARFSGSGSGTDFTLKISRVEAEDLGVYYCFQGSHVPYTFGGGTKLEIK
binding result [2]: binds
binding result [3]: binds

B2: 26.5: anti-MR1 blocking antibody from hybridoma clone 26.5, IgG2a isotype; heavy chain SEQ ID NO: 4, light chain SEQ ID NO: 8 (antibody, listed as Mus musculus, V domains shown)
VH: MEWSRVFIFLLSITAGVHSQVQLQQSGTELVRPGTSVKVSCKASGYAFSNYLIEWIKQRPGQGLEWIGVINPGSGGISYNEKFKGKATLTADKSSSTAYMQLSSLTSEDSAVYFCARWGYLYYYTMDHWGQGTSVTVSS
VL: MKLPVRLLVLMFWIPASSSDVLMTQTPLSLPVSLGDQASISCRSSQSIVQGSGNTFLDWYLQKPGQSPKVLIYKVSNRFSGVPARFSGSGSGTDFTLKISRVEAEDLGVYYCFQGSHVPYTFGGGTKLEIK
blocking of MAIT cell interaction with MR1 (MR1 / MAIT cells; stated as known): block MAIT cells from interacting with MR1
reactivity with human MR1 (human MR1): cross-reacts with both mouse and human MR1
number of lung metastases (B16F10 melanoma cells; B16F10 tumor-bearing MR1-/- mice, antibody vs cIg): no further decrease
B16F10 lung metastases (B16F10 melanoma cells; WT mice, 250 μg/mouse i.p. days -1, 0, 3 and 7, vs cIg, day 14): effectively suppressed lung metastases
suppression of B16F10 lung metastases, three vs four doses (B16F10 melanoma cells; WT mice, 250 μg/mouse i.p., days -1, 0, 3 vs days -1, 0, 3 and 7): more effective when four doses
reactivity with mouse MR1 (mouse MR1): cross-reacts with both mouse and human MR1
